Target: T1, endogenous iRhom2 on RPMI-8226 cells (Homo sapiens, UniProt Q6PJF5)
T1 construct: RPMI-8226 cells, a human B lymphocytic cell line endogenously expressing iRhom2; host or cells: RPMI-8226
T1 sequence (Q6PJF5 1-856): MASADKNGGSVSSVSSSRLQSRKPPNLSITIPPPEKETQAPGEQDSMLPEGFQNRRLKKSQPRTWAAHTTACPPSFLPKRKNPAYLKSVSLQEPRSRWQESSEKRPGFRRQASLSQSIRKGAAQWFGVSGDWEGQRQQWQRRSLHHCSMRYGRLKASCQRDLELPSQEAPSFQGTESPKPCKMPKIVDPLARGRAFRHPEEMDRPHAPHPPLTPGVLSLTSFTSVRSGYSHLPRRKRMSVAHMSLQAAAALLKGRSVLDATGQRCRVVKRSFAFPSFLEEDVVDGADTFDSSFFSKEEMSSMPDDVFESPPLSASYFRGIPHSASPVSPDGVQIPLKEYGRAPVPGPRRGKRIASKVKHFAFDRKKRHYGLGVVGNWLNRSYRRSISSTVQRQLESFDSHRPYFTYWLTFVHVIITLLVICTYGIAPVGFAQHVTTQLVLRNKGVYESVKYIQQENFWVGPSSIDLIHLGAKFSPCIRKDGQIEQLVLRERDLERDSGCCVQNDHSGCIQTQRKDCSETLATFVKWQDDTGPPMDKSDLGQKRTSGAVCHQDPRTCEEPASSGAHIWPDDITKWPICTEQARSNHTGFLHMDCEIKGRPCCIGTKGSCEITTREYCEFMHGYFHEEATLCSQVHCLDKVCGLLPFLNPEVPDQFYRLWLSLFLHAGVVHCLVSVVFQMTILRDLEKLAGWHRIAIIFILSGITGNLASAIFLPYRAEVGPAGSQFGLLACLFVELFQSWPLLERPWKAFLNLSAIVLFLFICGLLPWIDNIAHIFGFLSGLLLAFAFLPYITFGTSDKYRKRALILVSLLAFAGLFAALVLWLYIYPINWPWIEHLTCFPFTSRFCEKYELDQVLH
Test: FACS binding to RPMI-8226 cells endogenously expressing iRhom2
Settings: antibody at 3 μg/ml
Method: In this study, binding specificity analyses of the humanized antibody 42-B-02 as a representative example of the antibodies of the invention in cell lines endogenously expressing iRhom2 were performed. The studies were conducted on RPMI-8226 cells, a human B lymphocytic cell line endogenously expressing iRhom2 but being endogenously negative for iRhom1, on THP-1 cells, a human monocytic cell line endogenously expressing both iRhom2 and iRhom1 and on RH-30 cells, a human […] cell line endogenously negative for iRhom2 but endogenously expressing iRhom1.
In brief, human RPMI-8226 cells (Deutsche Sammlung von Mikroorganismen und Zellkulturen, Germany), THP-1 cells (American Type Culture Collection, USA) and RH-30 cells (Deutsche Sammlung von Mikroorganismen und Zellkulturen, Germany) were harvested with 10 mM EDTA in PBS, washed and resuspended in FACS buffer (PBS, 3% FBS, 0.05% sodium azide), and seeded in Nunc U-bottom 96-well plates (Thermo Fisher Scientific, USA) at approximately 2×10^5 cells per well. In order to pellet cells and remove supernatants, the plates were centrifuged at 1,500 rpm and 4° C. for 3 minutes. […] Finally, cells were resuspended in 150 μl per well of FACS buffer and analyzed using a BD Accuri™ C6 Plus flow cytometer (Becton Dickinson, Germany).

B1: 42-B-02: humanized antibody binding human iRhom2; HCVD SEQ ID NO 33, LCVD SEQ ID NO 37 (antibody, V domains shown)
VH: QVTLRESGPALVKPTQTLTLTCTFSGFSLSTFGRGVGWIRQPPGKALEWLAHIWWDDEKYYNSALKSRLTISKDTSKNQVVLTITNMDPVDTATYYCARIQNYGSNYWYFDVWGQGTLVTVSS
VL: AIQLTQSPSSLSASVGDRVTITCRASSRISYMFWYQQKPGKAPKVLIYDTSNLASGVPSRFSGSGSGTDYTLTISSLQPEDFATYYCQQWNSYPLTFGQGTKLEIK
modifications: antibody sequences
  binding to RPMI-8226 cells (endogenously expressing iRhom2, negative for iRhom1): strong binding

Reference: US12404345B2, “Humanized antibodies against iRHOM2” (SCIRHOM GMBH, priority 2021, dated 2025)
